The data set concerns MS2 coat protein. The data set is described as follows: apparent KD of MS2 coat protein; designed switch direction (-1 OFF switch, 1 ON switch): -1; higher = weaker reporter binding. In short, it runs like this:
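Apparent KD, taken as the median over clusters for each design, was obtained by curve-fitting normalised cluster fluorescence. Designed RNA switches had been transcribed on Illumina chips by stalled E. coli RNA polymerase and titrated with SNAP-549-labelled MS2 coat protein, doubling from 0.7 or 1.5 nM to 3 µM.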

Setting [1] is: Eterna round: R95, input ligand: microRNA oligo, concentration not stated.
[2] abbreviates: input ligand: microRNA oligo, concentration not stated.
Where [3] appears, read: Eterna round: R95, input ligand: FMN 200 uM.
[4] abbreviates: Eterna round: R95, input ligand: none.

In the case of “GUACUGACAGGAUAUACAUGAGGAUCACCCAUGUGCCUUAUCGCUACAAAAGUAGCGGGUAGAAGGGUCUGUAC [Omei Ex3 Model Bachelor's Dilema v19] (Eterna round: R97, puzzle: Exclusion 3)”, the “apparent KD of MS2 coat protein” value (input ligand: FMN 200 uM) came to 41.8 nM and the “apparent KD of MS2 coat protein” value (input ligand: none) came out at 16.4 nM.
In the case of “GUAGAGUAAGGAUAUACAGAAUAGGAUAGAAUGGUUAGAAUGUAGAAGGUACAUGAGGAUCACCCAUGUAAUGU [Excluse me!!!! 8 - Jieux - Exclusion 4] (puzzle: Exclusion 4)”, under setting [1], the “apparent KD of MS2 coat protein” value turned out to be 19.7 nM.
The same measure, in the same setting: under “GUAGAGUAAGGAUAUCAAGAAUAGGAUAGAAUGGUUAGAAUUGAGAAGGUACAUGAGGAUCACCCAUGUAAUGU [Excluse me!!!! 4 - Jieux - Exclusion 4] (puzzle: Exclusion 4)” stands 24.1 nM; under “GUAGAGUAAGGAUAUGGUGAAUAGGAUAGAAUGGUUAGAAAUCAGAAGGUACAUGAGGAUCACCCAUGUAAUGU [Excluse me!!!! 15 - Jieux - Exclusion 4] (puzzle: Exclusion 4)”, 21 nM.
Turning to “GUAGAGUCAGGAUAUACGAGAUCGAAAGAUCAGUGAUCCUUACAUGAGGAUCACCCAUGUAGAAGGGACUCUAC [Omei mod 8 to Eli's favorate candidate (ch.parushev)] (Eterna round: R97, puzzle: Exclusion 2)”, the “apparent KD of MS2 coat protein” value (input ligand: FMN 200 uM) stood at 41.9 nM and the “apparent KD of MS2 coat protein” value (input ligand: none) stood at 388 nM.
In the same order, the values of “GUAGAGUGAGGAUAUACGAGAUCGAUAGAUCAACGAUCCAAACAUGAGGAUCACCCAUGUAGAAGGCACUCUAC [Mat - Exclusion 2 - Eli Mod - D8] (Eterna round: R97, puzzle: Exclusion 2)” are 224 nM and 23.1 nM.
For “GUAGAGUGAGGAUAUACGAGAUCGAUAGAUCGGCGAUCCAUACAUGAGGAUCACCCAUGUAGAAGGCACUCUAC [Mat - Exclusion 2 - Eli Mod - D2] (Eterna round: R97, puzzle: Exclusion 2)” the same measures were 625 nM and 29.3 nM.
Consider “GUAUAACAUGUAGGAUAUGCGUGGCGAAGCUAUGCAGAAGGACAUGAGGAUCACCCAUGUUUUAGCGUCUGCGUACAGAUGCAA [JL ENG1 1.39] (Eterna round: R96, puzzle: Exclusion NG 1)”, for which the “apparent KD of MS2 coat protein” value turned out to be 143 nM (input ligand: FMN 200 uM), 20.1 nM under setting [2] and 26.3 nM (input ligand: none).
“GUAUAACUACACGGGCUCAACAUGAGGAUCACCCAUGUCAUAUACGCAAGCUUUUUGCUUGUCUUACCUGUCCGUGA [Ariedbi] (puzzle: Sensor v3, turn-off variant 1)”: the “apparent KD of MS2 coat protein” value amounted to 11.5 nM under setting [3], 10.4 nM under setting [1] and 10.1 nM under setting [4].
For the sequence “GUCACAUGGACAUAGGAUCACAUGAGGAUCACCCAUGUGACUAACAAGCUUUUUGCUCGUCUUAUGUCCAUGUGAAU [Stov1/15-A3] (Eterna round: R97, puzzle: Sensor, turn-off variant 1)”, the “apparent KD of MS2 coat protein” value by setting is: (input ligand: FMN 200 uM) 13 nM; (input ligand: none) 12.9 nM.
On to “GUCACAUGGACAUAGGAUCACAUGAGGAUCACCCAUGUGACUAACAAGCUUUUUGCUCGUCUUAUGUCUAUGUGAAG [Stov1/16-A3] (Eterna round: R97, puzzle: Sensor, turn-off variant 1)”, for which the “apparent KD of MS2 coat protein” value is, setting by setting: (input ligand: FMN 200 uM) 14.4 nM; (input ligand: none) 12.4 nM.
In the same order, the values of “GUCACAUGGGUGUAGAAUCACAUGAGGAUCACCCAUGUGACUAACAAGCUUUUUGCUCGUCUUAUGUCUAUGUGAAG [Stov1/17-A3] (Eterna round: R97, puzzle: Sensor, turn-off variant 1)” are 58.7 nM and 32.1 nM.
With “GUCACCUCGGUGACAAAGCACAUGAGGAUCACCCAUGUAUGUGCUUGGAAACAAGCAUUUUGUUCGUCUUAUAAGAA [same principle] (Eterna round: R96, puzzle: Sensor v2, turn-off variant)”, the “apparent KD of MS2 coat protein” value by setting is: (input ligand: FMN 200 uM) 22.7 nM; under setting [2], 95.4 nM; (input ligand: none) 21.6 nM.
As to “GUCACGUAAGGAUAUCAUUAGUUGGACAUGAGGAUCACCCAUGUGAGACUAACUCCGGCGUGAGAAGGUGCGUUAA [Arorza] (puzzle: Exclusion 5)”, the “apparent KD of MS2 coat protein” value under setting [1] was determined as 12 nM.
With “GUCACUAGAGGAUAUACAAUGGUAUAUGAUCCUAGUGACAAACAUGAGGAUCACCCAUGUAGAAGGCUAGUAAA [Exclusion 2 - 2] (puzzle: Exclusion 2)”, the “apparent KD of MS2 coat protein” value reads like this: under setting [3], 24.5 nM; under setting [1], 28.3 nM; under setting [4], 28 nM.
Take “GUCAGCUCGUCAGGAUAUACAUGAGGAUCACCCAUGUGGUCAUUAGCAGCUUCGGCUGCAUUAAUGUAGAAGGGACGAGCUGAC [ENG2/8-B1] (Eterna round: R96, puzzle: Exclusion NG 2)”: the “apparent KD of MS2 coat protein” value reads like this: (input ligand: FMN 200 uM) 1120 nM; under setting [2], 357 nM; (input ligand: none) 591 nM.
With “GUCAGCUCGUCAGGAUAUACAUGAUAGAUCGAUUAAUUAAUUAAUUUAACAUGAGGAUCACCCAUGUAGAAGGGACGAGCUGAU [ENG2/1-B2] (Eterna round: R96, puzzle: Exclusion NG 2)”, the “apparent KD of MS2 coat protein” value under setting [2] came to 59.2 nM.
Regarding “GUCAGCUCGUCAGGAUAUAUAUAUACAUGAGGAUCACCCAUGUUAGAUCAGCUUCGGCAGUAUAUAUAGAAGGGACGAGCUGAC [ENG2/15-B1] (Eterna round: R96, puzzle: Exclusion NG 2)”, the “apparent KD of MS2 coat protein” value by setting is: (input ligand: FMN 200 uM) 153 nM; under setting [2], 59 nM; (input ligand: none) 72.5 nM.
For “GUCAGCUCGUGAGGAUAUACAUCACUGCUUCGGCAGUGUAUUAAGAUCACAUGAGGAUCACCCAUGUAGAAGGCACGAGCUGAC [ENG2/2-A1] (Eterna round: R96, puzzle: Exclusion NG 2)”, the “apparent KD of MS2 coat protein” value is, setting by setting: (input ligand: FMN 200 uM) 309 nM; under setting [2], 34 nM; (input ligand: none) 29.6 nM.
For “GUCAGCUCGUGAGGAUAUACAUGCGUGCUUCGGCACGUAUGAUAGAUCACAUGAGGAUCACCCAUGUAGAAGGUACGAGCUGAU [ENG2/4-C2] (Eterna round: R96, puzzle: Exclusion NG 2)” the same measures were 14.9 nM, 10.8 nM and 15.2 nM.
In the same order, the values of “GUCAGCUCGUGAGGAUAUGCACAUGAGGAUCACCCAUGUAAGAUCAAGCUGCUUCGGCAGCAAGUGCAGAAGGUACGAGCUGAC [ENG2/9-C1] (Eterna round: R96, puzzle: Exclusion NG 2)” are 200 nM, 207 nM and 297 nM.
For “GUCAGGAAUGUAGGAUAUCUGCACGUGUAGUGCAGAGAAGGACAUGAGGAUCACCCAUGUAUAGUAGCUUCGGCUACACCUGAC [ENG1-A3] (Eterna round: R96, puzzle: Exclusion NG 1)” the same measures were 18 nM, 9.93 nM and 18.1 nM.
For the sequence “GUCAUACAUGAGGAUCACCCAUGUAAGGAUAUGCUAGCGGUCGGAAGACUGACUGCUAGCAGAAGGUACAUGAU [Mat - Mod of JL D80] (puzzle: Exclusion 1)”, under setting [1], the “apparent KD of MS2 coat protein” value was found to be 61.5 nM.
On to “GUCAUCAAACAUGGGAUAAACAUGAGGAUCACCCAUGUUUACAAGUUUUUUGCUCGUCUUAUAAUAAGUUUGAUGAC [Antenna 8 - Jieux - Sensor, turn-off variant 1] (Eterna round: R97, puzzle: Sensor, turn-off variant 1)”, for which the “apparent KD of MS2 coat protein” value was found to be 14 nM (input ligand: FMN 200 uM) and 15 nM (input ligand: none).
For “GUCCGACAUGAGGAUCACCCAUGUGAGGAUAUGCGAUUAGCUGCUAGGUAGUUAGUAUGUAGAAGGCGCAUGAA [EX1 #76] (Eterna round: R97, puzzle: Exclusion 1)” the same measures were 21.9 nM and 24.5 nM.
As to “GUCGAGUGAGGAUAUGGUGAGUAGUGCCAGAGCGCUGCUCACCAGAAGGCACAUGAGGAUCACCCAUGUAUAGC [Mat - Exclusion 4 - Mod of JL - D13] (puzzle: Exclusion 4)”, the “apparent KD of MS2 coat protein” value under setting [1] came out at 15.2 nM.
For the sequence “GUCGUGACCAAGGAUAUAGCUAGGGAAGGAAAGUUAGAAGGUGGUACAUGAGGAUCACCCAUGUAGUCCACAAA [Dixeatleve] (puzzle: Exclusion 6)”, the “apparent KD of MS2 coat protein” value is, setting by setting: under setting [3], 13.1 nM; under setting [1], 13 nM; under setting [4], 12.9 nM.
Take “GUCGUGCGGCUUUGCUGUACGAGUACAUGAGGAUCACCCAUGUAGGAUAUGGCACGCUUUGCGUGCCAGAAGGGCGUGCGUUGG [Excl-NG3-LRO10] (Eterna round: R96, puzzle: Exclusion NG 3)”: the “apparent KD of MS2 coat protein” value runs as follows: (input ligand: FMN 200 uM) 35.1 nM; under setting [2], 21.5 nM; (input ligand: none) 28.4 nM.
In the same order, the values of “GUCGUGCGGCUUUGCUGUGCGGGUACAUGAGGAUCACCCAUGUAGGAUAUGGUACGCUUUGCGUGCCAGAAGGGCGUGCGUUGG [salish99_ExNG3_r04_008] (Eterna round: R96, puzzle: Exclusion NG 3)” are 38.4 nM, 26.3 nM and 36.6 nM.
Consider “GUCGUGUUAGGAUAUGGCGGCGGCGGCGAAAGUUGUUGUUGUUAGAAGGAACAUGAGGAUCACCCAUGUAUGAC [-26 -25.5 kcal, A 24%] (Eterna round: R97, puzzle: Exclusion 4)”, for which the “apparent KD of MS2 coat protein” value is, setting by setting: (input ligand: FMN 200 uM) 104 nM; (input ligand: none) 35.3 nM.

Source of the values: the supplement of paper PMC9170038.
